Measurements: patent US20240123029A1

Biological target: SARS-CoV-2 S protein trimer, His Tag (in house, EXPI293F cells) (SARS-CoV-2) (UniProt P0DTC2)

Chain of Recombinant human mannose binding lectin (MBL) (P11226 21-248 limits assumed): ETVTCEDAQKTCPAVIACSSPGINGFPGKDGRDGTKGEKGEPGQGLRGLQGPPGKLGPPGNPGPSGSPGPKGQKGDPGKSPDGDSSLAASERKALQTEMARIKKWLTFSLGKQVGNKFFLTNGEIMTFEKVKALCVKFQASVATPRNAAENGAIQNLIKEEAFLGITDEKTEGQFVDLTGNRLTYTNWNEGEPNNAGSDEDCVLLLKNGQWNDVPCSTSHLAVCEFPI

Recombinant human mannose binding lectin (MBL) (from UniProt P11226 21-248)
Kd: 0.034 µM
koff: 0.00073 s⁻¹
kon: 21000 M⁻¹ s⁻¹
